Source: patent US20220411514A1, “ANTI-GAL3 ANTIBODIES AND METHODS OF USE FOR INSULIN RESISTANCE” (TrueBinding, Inc., priority 2021, published 2022)

Legend:
[1] = target: T1, hGal3 peptide (Homo sapiens, UniProt P17931); test: Gal3 peptide library binding ELISA (Example 2)
T1 construct: a library of 24 amino acid peptides representing portions of Gal3
Experimental: To identify the epitopes to which Gal3 antibodies with and without Gal3-INSR blocking activity bound, a library of 24 amino acid peptides representing portions of Gal3, depicted in FIG. 18, was produced and the ability of each peptide to bind Gal3 antibodies was evaluated by ELISA. At least 2 μg/ml of hGal3 peptide in 50 μl of PBS or 0.1 μg/ml of full-length human Gal3 protein (GenScript) and human Galectin-3 protein (Acro Biosystems, GA3-H5129) were diluted in PBS (Corning, 21-030-CM) to concentrations of at least 2 μg/ml or 0.1 μg/ml, respectively, and added to the wells of a 96-well ELISA plate (Thermo Fisher, 44-2404-21). After incubating the plate at 4° C. overnight, the plate was washed three times with PBST (PBS with 0.05% Tween 20 [VWR, 0777]). The plate was then blocked for an hour with 2% BSA (EMD Millipore, 126609) in PBST at room temperature with gentle rocking. Thereafter, the 2% BSA in PBST was discarded and human Galectin-3 hybridoma supernatants or antibodies were diluted in 2% BSA in PBST to concentrations of at least 0.1 μg/ml and added to the wells. The plate was incubated for an hour at room temperature with gentle rocking and then washed three times with PBST. Afterwards, Goat Anti-Mouse IgG-HRP (Jackson ImmunoResearch, 115-036-1461) or Goat Anti-Rat IgG HRP (Abcam, ab205720) diluted in 2% BSA in PBST (1:4000) were added to the wells. The plate was incubated for 30 minutes to 1 hour at room temperature with gentle rocking and then washed three times with PBST. TMB substrate (Thermo Scientific, 34029) was then added to each well. The reaction was stopped with 1M HCl (JT Baker, 5620-02) and read using a plate reader (Molecular Devices) at absorbance of 450 nm.

[2] = target: T2, Human Gal3 peptides (Homo sapiens, UniProt P17931); test: Gal3 peptide binding ELISA (Example 8); conditions: antibody 5 μg/mL
T2 construct: purchased LifeTein custom order
In short: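 Plates coated overnight at 4 °C with human Gal3 peptides (at least 100 μg/mL) or Gal3 protein (1 μg/mL) in PBS, then blocked with 2% BSA/PBST. Antibodies as hIgG4 (S228P) at 5 μg/mL, 1 h at room temperature. Detection by HRP anti-human IgG F(ab′)2 and TMB, absorbance at 450 nm.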

[3] = test system: NOD/ShiLtJ mice
Text: To assess the therapeutic potential of anti-GAL3 antibody in Type I diabetes, a mouse model of diabetes type I was used. Briefly, seven-weeks-old female NOD/ShiLtJ mice (Jackson lab (001976)) and control group animals NOR/LtJ (Jackson Lab (002050)) were housed in standard disposable cages with filter tops at room temperature with a 6:00-18:00 day-night cycle. Mice were allowed to rest for a week before initiating glucose monitoring. The antibody treatment was initiated when glucose levels reach 250-400 (mg/dL) for two consecutive days. To establish glucose levels, the blood samples were collected from tail vein of the experimental animals following housing in clean cages with water and no food for 4-6 hours. The collected samples were analyzed by HemoCue Glucose 201 Analyzer and cuvettes (Mercedes Scientific 110706). The animals were dosed twice a week (10 mg/kg) with anti-GAL3 antibodies (mTB001) or PBS control. […] At the end stage, the plasma samples were collected from symptomatic animals. C-peptide levels were determined by Alpco Mouse C-peptide ELISA kit (Alpco, 80-CPTMS-E01).

Molecule	binding to Gal3 peptide 1 (amino acids 1-20, SEQ ID NO: 3) [1]	binding to Gal3 peptide 7 (amino acids 61-80, SEQ ID NO: 9) [1]	binding to Gal3 peptide 1 (SEQ ID NO: 3) [2]	binding to Gal3 peptide 7 (SEQ ID NO: 9) [2]	binding to Gal3 peptide 6 (SEQ ID NO: 8) [2]	binding to Gal3 peptide 8 (SEQ ID NO: 10) [2]	blood glucose levels ([3]; 10 mg/kg twice a week)	survival ([3]; 10 mg/kg twice a week)	circulating C-peptide levels ([3]; end stage plasma)
19B5.2E6: anti-Gal3 antibody (antibody, 19B5.2E6 heavy chain peptide sequence; 19B5.2E6/23H9.2E4 light chain peptide sequence, anti-Gal3 antibody) heavy: QIQLVQSGPELKKPGETVKISCKASGYTFTTYAMSWVKQAPGKGLKWMGWINTYSGVPTYADDLKGRFAFSLETSASTAYLQINNLKNEDTATYFCARGPYAMDYWGQGTSVTVSSAKTTPPSVYPLAPVCGDTTGSSVTLGCLVKGYFPEPVTLTWNSGSLSSGVHTFPAVLQSDLYTLSSSVTVTSSTWPSQSITCNVAHPASSTKVDKKIEPRGPTIKPCPPCKCPAPNAAGGPSVFIFPPKIKDVLMISLSPIVTCVVVDVSEDDPDVQISWFVNNVEVHTAQTQTHREDYNSTLRVVSALPIQHQDWMSGKEFKCKVNNKDLGAPIERTISKPKGSVRAPQVYVLPPPEEEMTKKQVTLTCMVTDFMPEDIYVEWTNNGKTELNYKNTEPVLDSDGSYFMYSKLRVEKKNWVERNSYSCSVVHEGLHNHHTTKSFSRTPGK light: DIQMTQTTSSLSASLGDRVTISCSASQGINNYLNWYQQKPDGTVKLLIYYASSLHSGVPSRFSGSGSGTDYSLTISNLEPEDIATYYCQQYSQVPYTFGSGTKLEIKRADVAPTVSIFPPSSEQLTSGGASVVCFLNNFYPKDINVKWKIDGSERQNGVLNSWTDQDSKDSTYSMSSTLTLTKDEYERHNSYTCEATHKTSTSPIVKSFNRNEC	bound	bound	bound	bound	–	–	–	–	–
23H9.2E4: anti-Gal3 antibody (antibody, 23H9.2E4 heavy chain peptide sequence; 19B5.2E6/23H9.2E4 light chain peptide sequence, anti-Gal3 antibody) heavy: QIQLVQSGPELKKPGETVKISCKASGYTFTTYAMSWVKQAPGKGLKWMGWINTYSGVPTYADDLKGRFAFSLETSASTAYLQINNLKNEDTATYFCARGPYAMDYWGQGTSVTVSSAKTTPPSVYPLAPVCGDTTGSSVTLGCLVKGYFPEPVTLTWNSGSLSSGVHTFPAVLQSDLYTLSSSVTVTSSTWPSQSITCNVAHPASSTKVDKKIEPRGPTIKPCPPCKCPAPNAAGGPSVFIFPPKIKDVLMISLSPIVTCVVVDVSEDDPDVQISWFVNNVEVHTAQTQTHREDYNSTLRVVSALPIQHQDWMSGKEFKCKVNNKDLGAPIERTISKPKGSVRAPQVYVLPPPEEEMTKKQVTLTCMVTDFMPEDIYVEWTNNGKTELNYKNTEPVLDSDGSYFMYSKLRVEKKNWVERNSYSCSVVHEGLHNHHTTKSFSRTPGK light: DIQMTQTTSSLSASLGDRVTISCSASQGINNYLNWYQQKPDGTVKLLIYYASSLHSGVPSRFSGSGSGTDYSLTISNLEPEDIATYYCQQYSQVPYTFGSGTKLEIKRADVAPTVSIFPPSSEQLTSGGASVVCFLNNFYPKDINVKWKIDGSERQNGVLNSWTDQDSKDSTYSMSSTLTLTKDEYERHNSYTCEATHKTSTSPIVKSFNRNEC	bound	bound	bound	bound	bound	bound	–	–	–
20D11.2C6: anti-Gal3 antibody (antibody, 20D11.2C6 heavy chain peptide sequence; 20D11.2C6 light chain peptide sequence, anti-Gal3 antibody) heavy: EVQLQQSGPELVKPGASVKISCKASGYTFTDFYINWVKQSHGKSLEWIGDINPKNGGINYNPKFKIKATLTVDKSSSTSYMDLRGLTSEDSAVYYCTSGYGFPYWGQGTLVTVSAAKTTPPSVYPLAPVCGDTTGSSVTLGCLVKGYFPEPVTLTWNSGSLSSGVHTFPAVLQSDLYTLSSSVTVTSSTWPSQSITCNVAHPASSTKVDKKIEPRGPTIKPCPPCKCPAPNAAGGPSVFIFPPKIKDVLMISLSPIVTCVVVDVSEDDPDVQISWFVNNVEVHTAQTQTHREDYNSTLRVVSALPIQHQDWMSGKEFKCKVNNKDLGAPIERTISKPKGSVRAPQVYVLPPPEEEMTKKQVTLTCMVTDFMPEDIYVEWTNNGKTELNYKNTEPVLDSDGSYFMYSKLRVEKKNWVERNSYSCSVVHEGLHNHHTTKSFSRTPGK light: DIQMNQSPSSLSASLGDTITITCRASQNIYIWLSWYQQKPGNIPKLLIYKASNLHTGVPSRFSGSGSGTDFTLTISTLQPEDIATYFCLQGQSYPLTFGAGTKLEMKRADVAPTVSIFPPSSEQLTSGGASVVCFLNNFYPKDINVKWKIDGSERQNGVLNSWTDQDSKDSTYSMSSTLTLTKDEYERHNSYTCEATHKTSTSPIVKSFNRNEC	bound	bound	bound	bound	–	bound	–	–	–
mTB001: anti-Gal3 antibody mTB001 (antibody, mTB001 heavy chain peptide sequence; mTB001 light chain peptide sequence) heavy: QIQLVQSGPELKKPGETVKISCKASGYTFTNYGMNWVKQAPGKGLKWMGWINTNTGEPTYVEEFKGRFAFSLETSASTAYLQINNLKNEDTATYFCAPYDNFFAYWGQGTLVTVSAAKTTPPSVYPLAPVCGDTTGSSVTLGCLVKGYFPEPVTLTWNSGSLSSGVHTFPAVLQSDLYTLSSSVTVTSSTWPSQSITCNVAHPASSTKVDKKIEPRGPTIKPCPPCKCPAPNAAGGPSVFIFPPKIKDVLMISLSPIVTCVVVDVSEDDPDVQISWFVNNVEVHTAQTQTHREDYNSTLRVVSALPIQHQDWMSGKEFKCKVNNKDLGAPIERTISKPKGSVRAPQVYVLPPPEEEMTKKQVTLTCMVTDFMPEDIYVEWTNNGKTELNYKNTEPVLDSDGSYFMYSKLRVEKKNWVERNSYSCSVVHEGLHNHHTTKSFSRTPGK light: DIVITQDELSNPVTSGESVSISCRSSKSLLYKDGKTYLNWFLQRPGQSPQLLIYLMSTHASGVSDRFSGSGSGTDFTLEISRVKAEDVGVYYCQQLVDYPLTFGAGTKLELKRADVAPTVSIFPPSSEQLTSGGASVVCFLNNFYPKDINVKWKIDGSERQNGVLNSWTDQDSKDSTYSMSSTLTLTKDEYERHNSYTCEATHKTSTSPIVKSFNRNEC	–	–	–	–	–	–	stabilizing the levels of blood glucose	prolonged survival	restoring C-peptide levels
